Experimental data taken from patent USRE48558 (Genentech, dated 2021).
Where a chain is given by its changes, count along the chain named. In names and notes the source's numbering stands.

B1: huMA79b H3-10 (Fab) (Fab, name in Kabat numbering, V domains shown)
VH: EVQLVESGGGLVQPGGSLRLSCAASGYTFSSYWIEWVRQAPGKGLEWVGEILPGGGDTNYNEIFKGRFTISADTSKNTAYLQMNSLRAEDTAVYYCTRRVPIRLDYWGQGTLVTVSS
VL: DIQMTQSPSSLSASVGDRVTITCKASQSVDYDGDSFLNWYQQKPGKAPKLLIYAASNLESGVPSRFSGSGSGTDFTLTISSLQPEDFATYYCQQSNEDPLTFGQGTKVEIKR
notes: Fab on phage in the selection; purified Fab in FACS; rest as huMA79b graft; also called H3-10 mutation
B2: huMA79b graft variant SEQ ID NO: 85 (Fab, name in Kabat numbering, V domains shown)
VH: B1 VH with Y27F, T28P, S30T, E35S, I102V, R103Y, L104F
VL: B1 VL
notes: Fab on phage; rest as huMA79b graft
B3: huMA79b graft variant SEQ ID NO: 83 (Fab, name in Kabat numbering, V domains shown)
VH: B1 VH with T28P, S30N, S31G, E35N, I102V, R103Y, L104F
VL: B1 VL
notes: as for B2
B4: huMA79b graft variant SEQ ID NO: 101 (Fab, name in Kabat numbering, V domains shown)
VH: B1 VH with I102V, L104F
VL: B1 VL
notes: as for B2
B5: huMA79b graft variant SEQ ID NO: 86 (Fab, name in Kabat numbering, V domains shown)
VH: B1 VH with Y27F, T28P, S30N, S31R, E35N, I102V, R103Y, L104F
VL: B1 VL
notes: as for B2
B6: huMA79b graft variant SEQ ID NO: 102 (Fab, name in Kabat numbering, V domains shown)
VH: B1 VH with I102V, R103F
VL: B1 VL
notes: as for B2
B7: huMA79b graft variant SEQ ID NO: 105 (Fab, name in Kabat numbering, V domains shown)
VH: B1 VH with V100R, I102V, R103C
VL: B1 VL
notes: as for B2
B8: huMA79b graft variant H1-1 (Fab) (Fab, name in Kabat numbering, V domains shown)
VH: B1 VH with T28P, S30N, S31R, E35N, I102V, R103Y, L104F
VL: B1 VL
notes: Fab on phage in the selection; purified Fab in FACS; rest as huMA79b graft; also called H1-1 mutation
B9: huMA79b graft variant SEQ ID NO: 96 (Fab, name in Kabat numbering, V domains shown)
VH: B1 VH with L104F
VL: B1 VL
notes: as for B2
B10: huMA79b graft variant SEQ ID NO: 84 (Fab, name in Kabat numbering, V domains shown)
VH: B1 VH with T28N, F29V, I34L, E35S, I102V, R103Y, L104F
VL: B1 VL
notes: as for B2
B11: huMA79b graft variant SEQ ID NO: 99 (Fab, name in Kabat numbering, V domains shown)
VH: B1 VH with I102V, R103V
VL: B1 VL
notes: as for B2
B12: huMA79b graft variant SEQ ID NO: 98 (Fab, name in Kabat numbering, V domains shown)
VH: B1 VH with I102V, R103Y, L104F, D105S
VL: B1 VL
notes: as for B2
B13: huMA79b graft variant SEQ ID NO: 100 (Fab, name in Kabat numbering, V domains shown)
VH: B1 VH with I102V
VL: B1 VL
notes: as for B2
B14: huMA79b graft variant SEQ ID NO: 95 (Fab, name in Kabat numbering, V domains shown)
VH: B1 VH with R103K
VL: B1 VL
notes: as for B2
B15: huMA79b graft variant SEQ ID NO: 80 (Fab, name in Kabat numbering, V domains shown)
VH: B1 VH with T28P, S30R, E35N, I102V, R103Y, L104F
VL: B1 VL
notes: as for B2
B16: huMA79b graft variant SEQ ID NO: 81 (Fab, name in Kabat numbering, V domains shown)
VH: B1 VH with T28P, S30R, S31G, I102V, R103Y, L104F
VL: B1 VL
notes: as for B2
B17: huMA79b graft variant SEQ ID NO: 92 (Fab, name in Kabat numbering, V domains shown)
VH: B1 VH with I102F, R103C
VL: B1 VL
notes: as for B2
B18: huMA79b graft variant SEQ ID NO: 89 (Fab, name in Kabat numbering, V domains shown)
VH: B1 VH with I102V, R103K
VL: B1 VL
notes: as for B2
B19: huMA79b graft variant SEQ ID NO: 82 (Fab, name in Kabat numbering, V domains shown)
VH: B1 VH with T28P, S30N, S31R, I102V, R103Y, L104F
VL: B1 VL
notes: as for B2
B20: huMA79b graft variant SEQ ID NO: 106 (Fab, name in Kabat numbering, V domains shown)
VH: B1 VH with V100I, I102V, R103Y, L104F
VL: B1 VL
notes: as for B2
B21: murine anti-CD79b monoclonal antibody MA79b (antibody, V domains shown)
VL: DIVLTQSPASLAVSLGQRATISCKASQSVDYDGDSFLNWYQQKPGQPPKLFIYAASNLESGIPARFSGSGSGTDFTLNIHPVEEEDAATYYCQQSNEDPLTFGAGTELELKR
VH: EVQLQQSGAELMKPGASVKISCKATGYTFSSYWIEWVKQRPGHGLEWIGEILPGGGDTNYNEIFKGKATFTADTSSNTAYMQLSSLTSEDSAVYYCTRRVPVYFDYWGQGTSVTVSS
notes: Murine IgG; 125I-labelled in the Scatchard analysis; also called murine CD79b antibody; original mouse anti-CD79b monoclonal antibody
B22: MA79b-grafted humanized antibody variant 18 (antibody, human IgG1, kappa)
light: DIQLTQSPSSLSASVGDRVTITCKASQSVDYDGDSFLNWYQQKPGKAPKLLIYAASNLESGVPSRFSGSGSGTDFTLTISSLQPEDFATYYCQQSNEDPLTFGQGTKVEIKRTVAAPSVFIFPPSDEQLKSGTASVVCLLNNFYPREAKVQWKVDNALQSGNSQESVTEQDSKDSTYSLSSTLTLSKADYEKHKVYACEVTHQGLSSPVTKSFNRGEC
heavy: not shown
notes: IgG; also called huMA79b.v18; MA79b.v18
B23: thio huMA79b.v18-HC(A118C)-BMPEO-DM1 (antibody, human IgG1, kappa)
heavy: not shown
light: B22 light
modifications: BMPEO-DM1 on the engineered Cys at EU position 118 (sequential 118; Kabat 114)
notes: Cysteine engineered antibody drug conjugate; also called huMA79b.v18-HC(A118C) thioMAb-BMPEO-DM1
B24: thio huMA79b.v18-HC(A118C)-MC-vcPAB-MMAE (antibody, human IgG1, kappa)
heavy: not shown
light: B22 light
modifications: MC-val-cit-PAB-MMAE on the engineered Cys at EU position 118 (sequential 118; Kabat 114)
notes: Cysteine engineered antibody drug conjugate
B25: thio huMA79b.v18-HC(A118C)-MC-MMAF (antibody, human IgG1, kappa)
heavy: not shown
light: B22 light
modifications: MC-MMAF on the engineered Cys at EU position 118 (sequential 118; Kabat 114)
notes: as for B24
B26: MA79b-grafted humanized antibody variant 28 (antibody, human IgG1, kappa)
light: B22 light with D32E
heavy: not shown
notes: IgG; also called huMA79b.v28
B27: MA79b-grafted humanized antibody variant 32 (antibody, human IgG1, kappa, V domains shown)
VH: B1 VH with V48I, F68A, I70F
VL: B1 VL with M4L, D32S, L51F
notes: also called huMA79b.v32; MA79b.v32
B28: thio huMA79b.v28-HC(A118C)-MCvcPAB-MMAE (antibody, human IgG1, kappa)
heavy: not shown
light: B22 light with D32E
modifications: MC-val-cit-PAB-MMAE on the engineered Cys at EU position 118 (sequential 118; Kabat 114)
notes: Cysteine engineered antibody drug conjugate; also called thio huMA79b.v28-HC(A118C)-MC-val-cit-PAB-MMAE
B29: MA79b-grafted humanized antibody variant 17 (antibody, human IgG1, kappa, V domains shown)
VH: B1 VH with V48I, F68A, I70F, I102V, R103Y, L104F
VL: B1 VL with M4L
notes: IgG; also called huMA79b.v17
B30: thio huMA79b.v28-HC(A118C)-MC-MMAF (antibody, human IgG1, kappa)
heavy: not shown
light: B22 light with D32E
modifications: MC-MMAF on the engineered Cys at EU position 118 (sequential 118; Kabat 114)
notes: as for B24
B31: thio huMA79b.v28-HC(A118C)-BMPEO-DM1 (antibody, human IgG1, kappa)
heavy: not shown
light: B22 light with D32E
modifications: BMPEO-DM1 on the engineered Cys at EU position 118 (sequential 118; Kabat 114)
notes: as for B24

What was measured:
[1] = molecular target: T1, human CD79b on the cell surface (human, UniProt P40259 29-229); experiment: FACS on DoHH-2 cells, Fab, PE anti-human kappa detection
T1 construct: In the Scatchard analysis the BJAB line also stably expressed cynomolgus CD79b; also called PRO36249; endogenous human CD79b on DoHH-2, BJAB and BJAB-luciferase cells
T1 sequence: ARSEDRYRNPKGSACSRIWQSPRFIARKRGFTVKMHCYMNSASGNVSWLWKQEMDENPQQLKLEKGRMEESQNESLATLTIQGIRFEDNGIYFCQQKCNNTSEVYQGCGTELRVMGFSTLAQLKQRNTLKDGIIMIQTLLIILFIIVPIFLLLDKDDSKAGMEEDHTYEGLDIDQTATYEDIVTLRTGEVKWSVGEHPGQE

[2] = molecular target: T2, extracellular domain of human CD79b (human, UniProt P40259 29-159); experiment: phage selection, Fab on phage, plate-bound huCD79becd
T2 construct: also called huCD79becd; huCD79b-ecd
T2 sequence: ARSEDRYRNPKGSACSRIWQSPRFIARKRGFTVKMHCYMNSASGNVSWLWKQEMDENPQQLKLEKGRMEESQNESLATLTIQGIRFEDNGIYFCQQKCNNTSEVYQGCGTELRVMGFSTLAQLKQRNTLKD

[3] = molecular target: T1, human CD79b on the cell surface; experiment: Scatchard analysis, 125I-labelled IgG competed with unlabelled IgG on BJAB cells stably expressing cynomolgus CD79b and endogenous human CD79b
[4] = molecular target: T3, extracellular domain of human CD79b fused to Fc (human, UniProt P40259 29-159); experiment: SPR (Biacore), IgG compared with Fab, immobilized huCD79becd-Fc
T3 construct: also called huCD79becd-Fc; huCD79b-Fc; not shown: Fc part of the fusion
T3 sequence: T2 sequence

[5] = molecular target: T2, extracellular domain of human CD79b; experiment: SPR (Biacore), IgG, immobilized huCD79becd
[6] = molecular target: T1, human CD79b on the cell surface; experiment: FACS on BJAB-luciferase cells, PE anti-human IgG detection
[7] = molecular target: T1, human CD79b on the cell surface; experiment: Scatchard analysis, IgG, BJAB cells stably expressing cynomolgus CD79b and endogenous human CD79b
[8] = molecular target: T1, human CD79b on the cell surface; experiment: FACS on BJAB-luciferase cells, PE anti-human detection

Binder | binding result [2] | further results
B1 | binds | binding result [1]: binds
B2 | binds | –
B3 | binds | –
B4 | binds | –
B5 | binds | –
B6 | binds | –
B7 | binds | –
B8 | binds | binding result [1]: binds
B9 | binds | –
B10 | binds | –
B11 | binds | –
B12 | binds | –
B13 | binds | –
B14 | binds | –
B15 | binds | –
B16 | binds | –

Binder | binding result [2] | further results
B17 | binds | –
B18 | binds | –
B19 | binds | –
B20 | binds | –
B21 | – | Kd [3]: 0.63 nM; fold avidity component (IgG against Fab of MA79b) [4]: 100 fold
B22 | – | fold improvement in dimeric binding compared to variant 17 [5]: 2 fold
B23 | – | binding result [6]: binds
B24 | – | binding result [6]: binds
B25 | – | binding result [6]: binds
B26 | – | Kd [7]: 0.44 nM
B27 | – | Kd [7]: 0.24 nM
B28 | – | binding result [8]: binds
B29 | – | binding result [5]: binds
B30 | – | binding result [8]: binds
B31 | – | binding result [8]: binds
